Tests used:
[1] = molecular target: complement factor H (UniProt P08603 19-1231); assay: SPR
[2] = molecular target: complement C8 (UniProt P07357 31-584; P07358 55-591; P07360 21-202); assay: SPR
complement C8, sequence (P07357 31-584, chain 1 of 3): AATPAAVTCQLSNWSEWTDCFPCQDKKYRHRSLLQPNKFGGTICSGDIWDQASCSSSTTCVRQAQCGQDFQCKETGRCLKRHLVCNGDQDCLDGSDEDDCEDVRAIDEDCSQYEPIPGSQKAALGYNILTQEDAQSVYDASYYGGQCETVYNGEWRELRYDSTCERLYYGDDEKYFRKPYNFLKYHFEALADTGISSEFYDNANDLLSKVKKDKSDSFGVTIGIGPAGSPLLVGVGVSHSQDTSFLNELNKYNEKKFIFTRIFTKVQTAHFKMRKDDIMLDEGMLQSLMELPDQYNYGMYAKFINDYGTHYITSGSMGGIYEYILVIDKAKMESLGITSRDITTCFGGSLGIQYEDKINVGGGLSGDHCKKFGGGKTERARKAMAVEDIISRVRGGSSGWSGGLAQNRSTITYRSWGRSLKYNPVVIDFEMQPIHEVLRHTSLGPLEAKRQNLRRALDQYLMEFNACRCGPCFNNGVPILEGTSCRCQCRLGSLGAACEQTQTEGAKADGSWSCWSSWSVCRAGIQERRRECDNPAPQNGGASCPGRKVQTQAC
complement C8, sequence (P07358 55-591, chain 2 of 3): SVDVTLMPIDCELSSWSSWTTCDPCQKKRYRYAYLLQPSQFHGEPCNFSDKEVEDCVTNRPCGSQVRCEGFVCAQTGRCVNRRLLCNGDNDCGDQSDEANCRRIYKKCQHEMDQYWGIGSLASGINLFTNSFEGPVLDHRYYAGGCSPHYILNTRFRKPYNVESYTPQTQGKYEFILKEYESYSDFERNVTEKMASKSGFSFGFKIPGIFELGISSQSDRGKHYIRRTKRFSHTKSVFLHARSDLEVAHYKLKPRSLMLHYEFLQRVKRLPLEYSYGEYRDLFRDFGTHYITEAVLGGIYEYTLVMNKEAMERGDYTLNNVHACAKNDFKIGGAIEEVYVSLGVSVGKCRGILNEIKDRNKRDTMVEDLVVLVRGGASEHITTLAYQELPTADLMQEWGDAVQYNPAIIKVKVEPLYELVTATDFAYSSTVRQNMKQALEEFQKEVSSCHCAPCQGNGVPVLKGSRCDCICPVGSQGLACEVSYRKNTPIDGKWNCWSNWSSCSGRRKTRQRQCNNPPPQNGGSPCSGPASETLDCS
complement C8, sequence (P07360 21-202, chain 3 of 3): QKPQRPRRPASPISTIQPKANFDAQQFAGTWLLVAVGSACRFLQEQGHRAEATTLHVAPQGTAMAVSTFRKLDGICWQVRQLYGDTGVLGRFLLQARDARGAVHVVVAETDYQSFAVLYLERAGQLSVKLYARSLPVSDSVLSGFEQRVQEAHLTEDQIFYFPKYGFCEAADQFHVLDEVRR

complement factor H, sequence (P08603 19-1231): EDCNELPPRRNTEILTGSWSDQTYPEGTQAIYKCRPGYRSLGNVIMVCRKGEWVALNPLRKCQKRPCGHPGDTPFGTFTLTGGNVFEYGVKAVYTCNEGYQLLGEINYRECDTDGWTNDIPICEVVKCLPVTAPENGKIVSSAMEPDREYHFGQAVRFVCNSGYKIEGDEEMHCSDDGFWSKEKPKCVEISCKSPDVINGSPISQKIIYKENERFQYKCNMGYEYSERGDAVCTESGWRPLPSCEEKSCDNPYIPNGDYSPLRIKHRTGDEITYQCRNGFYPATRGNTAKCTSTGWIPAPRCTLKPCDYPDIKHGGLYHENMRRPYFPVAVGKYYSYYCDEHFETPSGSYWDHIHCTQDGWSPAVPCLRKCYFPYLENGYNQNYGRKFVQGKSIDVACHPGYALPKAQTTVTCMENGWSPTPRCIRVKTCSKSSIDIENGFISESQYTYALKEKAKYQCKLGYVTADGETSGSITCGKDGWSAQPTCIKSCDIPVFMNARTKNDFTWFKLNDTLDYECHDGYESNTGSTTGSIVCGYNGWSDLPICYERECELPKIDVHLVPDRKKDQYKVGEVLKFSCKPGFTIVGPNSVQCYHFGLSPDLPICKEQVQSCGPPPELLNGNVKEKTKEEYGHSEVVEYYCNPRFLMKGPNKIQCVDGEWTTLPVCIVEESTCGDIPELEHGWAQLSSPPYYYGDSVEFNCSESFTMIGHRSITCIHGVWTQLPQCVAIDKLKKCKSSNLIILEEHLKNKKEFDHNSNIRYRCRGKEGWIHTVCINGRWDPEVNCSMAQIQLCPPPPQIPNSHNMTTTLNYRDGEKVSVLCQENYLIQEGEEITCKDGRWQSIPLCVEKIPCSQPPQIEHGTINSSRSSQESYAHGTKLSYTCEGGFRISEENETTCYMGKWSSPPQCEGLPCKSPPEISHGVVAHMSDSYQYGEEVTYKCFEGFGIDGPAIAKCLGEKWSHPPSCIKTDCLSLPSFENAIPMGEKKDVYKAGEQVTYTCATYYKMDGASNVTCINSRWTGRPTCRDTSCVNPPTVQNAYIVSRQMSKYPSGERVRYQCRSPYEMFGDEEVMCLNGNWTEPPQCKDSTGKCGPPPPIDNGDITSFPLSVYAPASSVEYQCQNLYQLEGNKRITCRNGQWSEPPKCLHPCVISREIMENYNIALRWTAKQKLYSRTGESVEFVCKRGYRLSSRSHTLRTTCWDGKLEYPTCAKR

B1: recombinant full-length thrombospondin-1 (natural protein)
chain: not shown
A Kd [1] of 203 nM and a Kd [2] of 311 nM were found for B1 in this work.

Reference: doi:10.1101/2024.07.31.606000 (bioRxiv, 2024)
